How the values were obtained:
Conditions in all cases: remark: other sources report otherwise
[1] = target: UFV180499 H5 A/Hong Kong/156/97 (influenza A H5 A/Hong Kong/156/97)
[2] = target: T1, UFV5367 (influenza A H1N1 A/Brisbane/59/07), A8C8J4
[3] = target: T1, UFV5367 (influenza A H1N1 …); remark: listed apart in the source
[4] = target: Full length HA H1N1 A/Brisbane/59/07 (influenza A H1N1 A/Brisbane/59/07), B4URD6
[5] = target: T1, UFV5367 (influenza A H1N1 …); experiment: ELISA, polypeptide coated, antibody titrated; average of 3 independent assays

B1: CR9114 (antibody, V domains shown)
VH: QVQLVQSGAEVKKPGSSVKVSCKSSGGTSNNYAISWVRQAPGQGLDWMGGISPIFGSTAYAQKFQGRVTISADIFSNTAYMELNSLTSEDTAVYFCARHGNYYYYSGMDVWGQGTTVTVSS
VL: SYVLTQPPAVSGTPGQRVTISCSGSDSNIGRRSVNWYQQFPGTAPKLLIYSNDQRPSVVPDRFSGSKSGTSASLAISGLQSEDEAEYYCAAWDDSLKGAVFGGGTQLTVL
- EC50 (read off the curve) [1]: 0.02 µg/mL

B2: Fab fragment of mAb CR6261 (Fab, V domains shown)
VH: EVQLVESGAEVKKPGSSVKVSCKASGGPFRSYAISWVRQAPGQGPEWMGGIIPIFGTTKYAPKFQGRVTITADDFAGTVYMELSSLRSEDTAMYYCAKHMGYQVRETMDVWGKGTTVTVSS
VL: QSVLTQPPSVSAAPGQKVTISCSGSSSNIGNDYVSWYQQLPGTAPKLLIYDNNKRPSGIPDRFSGSKSGTSATLGITGLQTGDEANYYCATWDRRPTAYVVFGGGTKLTVLG
- MW polypeptide + Fab6261 (kDa) [2]: 204 kDa

B3: CR6261 (antibody, V domains shown)
VH: EVQLVESGAEVKKPGSSVKVSCKASGGPFRSYAISWVRQAPGQGPEWMGGIIPIFGTTKYAPKFQGRVTITADDFAGTVYMELSSLRSEDTAMYYCAKHMGYQVRETMDVWGKGTTVTVSS
VL: QSVLTQPPSVSAAPGQKVTISCSGSSSNIGNDYVSWYQQLPGTAPKLLIYDNNKRPSGIPDRFSGSKSGTSATLGITGLQTGDEANYYCATWDRRPTAYVVFGGGTKLTVLG
- Kd [3]: 480 pM
- Kd [4]: 1100 pM
- EC50 [5]: 417 pM
